# Assay: soluble on expression in E. coli; label from the status in PepcDB or PDB records
row,Sequence,soluble on expression in E. coli
1,MKLSKDTTALLKNFATINSGIMLKSGQFIMTRAVNGTTYAEANISDVIDFDVAIYDLNGFLGILSLVNDDAEISQSEDGNIKIADARSTIFWPAADPSTVVAPNKPIPFPVASAVTEIKAEDLQQLLRVSRGLQIDTIAITVKEGKIVINGFNKVEDSALTRVKYSLTLGDYDGENTFNFIINMANMKMQPGNYKLLLWAKGKQGAAKFEGEHANYVVALEADSTHDF,soluble
2,MSQNHVIELANTLKQRPIVCDYTGGRFRLTNEGLTYIGIDRDGTPLPPRWICAPLHIVAKTRDAQSGEWGRLLEWQDDDGITHQWAMPLALLQGDASDVRRELARLGLSISPHRTARDLLASYLQVFPVDARARCVDKLGWHGDVFVTASQCIGQSTEKIVFQNTNAIEPAMSIKGSVDKWRDSIGRLASGNSRLVFAISVALAPVLAKIVGEDSGGFHFRGASSSGKSTALSLAASVWGNPQSYCRLWRSTTNGLEGLAALHNDGLLILDELSQMDPREAGEAAYLLANGQGKTRASRTGTVRQSSRWSLFFLSAGEESLTALMAKSGQRINAGQEIRLADIEADAGCQMGIFETIHDQLSPASMALSLKKYSSGYHGAIGRAWLNQVVANRQTISRFITDTIQSFVDIVIQPDATGQIIRVARRFALVAAAGELASQFGLTGWKKGESFHAAKTCFIAWQDAFGVDGHREDRAIMAQVRAFFESHGASRFDNVNSPNNDKILNRAGFYHTDGEGFRIYMVLTETYKNELCKGFDQRTVTRVLLQAGWLKPASDGKASHKPRIKGVGTPRLYVFTGKIWGGELEHHHHHH,soluble
3,MKFIRRCMMETRYTVRQAVEMTGVKSYVLRYWEEELELQIHRNELGHRYYTGYDIQLFLNIKELKKRGLQLRAIKNLIPQITASMTGFGESASTLLEGEVIDHAEVKTDRDLKEKISKKDEGKNDKILEFQAILERLITQELKAQNEDEERCRSLDYAIRRQQLARKEAAAAAEKKSGRRRRDK,not soluble
4,MNDTKITGGDLYDLWRVANINMPNVQAVYADACNVIHEINVANEDKFGRAHPGWAALGQIYEQCLFLTEGSLFSVAHYIDKAVKEFKEVDAEAARDLEAIFKNPNDHNPDDELTGDEKPKDVEVPNWWND,not soluble
5,MSLYSSENDYIILEDKTATGKKRDWKGKKRRTNLMAEHYEALQSKTGIPYYGKKAEKLCSCAECLSFKRDPETGKLKLYQAQFCKVRLCPMCAWRRSLKIAYHNKLIVEEANRQYGCGWIFLTLTVRNVEGDGLKPMIADMMKGWNRLFGYKRVKVATLGYFRALEITKNHEEDTYHPHFHVLLPVKKSYFTHNYIKQSEWTSLWKRAMKLDYTPIVDIRRVKGRAKIDAEQIESDVREAMMEQKAVLEISKYPVKDTDVVRGNKVTEDNLNTVFYLDDALSARRLIGYGGILKEIHKELNLGDAEDGDLVKIEEEDDEVANEAFEVMAYWHPGIKNYIIREGHHHHHH,not soluble
6,ARFYSDGLKLAGTLFVPDDYEPGQKRPAVLICHGRFAIKEWVPSRWTPHFLAAGYVCMVFDYRNLGESEGTPGRIIPDEEVRDARHALTYLQCQPEVDPARIGALGWGLGGGVAVSAAAHDARIKAVVCAIGVANGGRYGRVGMSDAAWAARQEQIAADRRERVLTGRSARLPRTEILGRPDAQRAERHERQNWIDSLVAAVGPERAADPAKLGIPDEITLESMEALYDFAPDAVVDRIAPRPLLIVHARDDHEFPFEHAADMYERAAQPKQLIAVEDAGHLDWIDPAHPSQQVYVPQVVAWMQAQL,not soluble
7,RTDTIMVVNVGNHAKKIKMVSFMRDTLINIPGYSYNDNSYDLKLNSAFNLGEQEDHHGAEYVRRALKHNFDIDIKYYVMVDFETFAEAIDTLFPNGVKIDAKFATVGGVAVDSVEVPDDLRMKNGVVPNQTIEVGEQRMDGRTLLNYARFRKDDEGDFGRTVRQQQVMSAVMSQIKD,not soluble
8,MGSDKIHHHHHHAEVAVPDTTPKDTASAVKITYEDPRDPFEGFNRVMWDFNYLYLDRYLYRPVAHGYNDYIPLPAKMGVNNFLQNLEEPSSVVNNLLQGKWGWAANAGGRFTVNTTIGLLGVIDVADMMGMTRKQDEFNEVLGYYGVPNGPYFMAPFAGPYIVRELASDWVDGLYFPLSELTMWQSVLKWGLKSLHARASAIDQERLVDNALDPYAFVKDAYIQHMDYKVYDGNVPQKQEDDELLDQYMQELE,not soluble
9,MAHHHHHHMVKGDCIRAAHLLIKFDGSRNCVSHRTGKSTADLTYDAALAELKQWAKRIADGEITFEDAARQRSDCGSYNSGGDLGFFGPGVMMKPFEDAARSLNVGEVSGVVRTESGLHIIKRLA,soluble
10,LADTSPMDKKGRKAEDALVVNVRANLYWWEFEYPDYGIITSQELIVPTDQRVYFNLKASDVKHSFWIPSVGGKLDTNTDNENKFFLTFDSKRSKEAGDMFFGKCAELCGPSHALMDFKVKTMSAKEFQGWTKEMKNYKSTAESDLAKQGEELFKEKNCLSCHAVEPNDKRAEAARTAPNLATFGERTKVAGVKEANKENVKAWLKDPDSIKPGNKMTGTYPKLSDSETNALYEYLKGLKAE,not soluble
11,MSLCPLTPVGKYLLLPLWLGVRPFFRALFRIEVIGKENIPEGACIVASNHRSHLDPPVLNAVFPEPLVFLAKEELFKPPFGGILKHMRAIPLRRGSEDISTLEECVSLLKLGCKIGIFPEGTRANPGEFKRAKPGVGFLAINSGFPVLPVYIDGTDRAFPRGKKFPKPFVKVSVVIGKPLEFKGLEPSVKNYKRVANEIMEEIKKLAQSLHRKEGHHHHHH,soluble
12,MSLQNPFVPQLVYIEPRALEYPLGQELQDKFENMGIEIRETTSHNQVRNIPGKNHLQQYRNAKSTLVIGVRKTLKFDSSKPSAEYAIPFATGCMGHCHYCYLQTTMGSKPYIRTYVNVEEILDQADKYMKERAPEFTRFEASCTSDIVGIDHLTHTLKRAIEHFGQSDLGKLRFVTKFHHVDHLLDAKHNGKTRFRFSINADYVIKNFEPGTSPLDKRIEAAVKVAKAGYPLGFIVAPIYIHEGWEEGYRHLFEKLDAALPQDVRHDITFELIQHRFTKPAKRVIEKNYPKTKLELDEEKRRYKWGRYGIGKYIYQKDEEHALREALESYIDTFFPNAKIEYFTEGHHHHHH,soluble
13,MSLRVLIVENEIYLAQSIAAKLSDFGFECEIVSLVNEALREQEYDVVLLSTNVSGQNYYPIIEKHKDSIIILMISYVSDDTVSKPLKAGAKDYILKPFMIDELIRKIEHYRTFQKLKKEVQFYRRYLDFALSDFPSSLNQKLTTPFVIKSSTQKSADAYAIAYAKHKDIPLDFLSIKEGFHWRDKLKRALPCREIKYIVGLEELKKSERKELLEIVAKSCVILSFVSSEEGHHHHHH,not soluble
14,MSLYKQTSIFDAKFDKNRPLADRMRPRTLDEFVGQEHILGKGKALRELIEKDSITSMILWGPPGVGKTTLAMIIANMTNSKFVNFSAVLSGIKEIKEIMAQAERDAMYGQRTVVFIDEIHRFNKAQQDAFLPHVEKGNIILIGATTENPSFEVNSALLSRSKVFMMKPLDVKDIMIILKRALKDEERGLGLYNVEIDEEKLEKIALFSNGDARVALNTLEMAVMAANVVNGKRVVTDEILSDVMQKKALLYDKAGEEHYNLISAFHKSLRNSDWDAALYWMARMLEAGEDPLYIARRMIRFASEDVGLADPQALSVAIAAYEASHYIGMPECSVNLAQAAVYLALAPKSNALYVAYNRVKKDAEETFAEPVPMHLRNAPTKLMKELGYGEGYKYAHDFEEKVTDMECLPENLKGRRYYIPTDSGFEKKLKERMEEILKLKGEGHHHHHH,soluble
15,MGSDKIHHHHHHMKIAIITDGSVEMGMGHVYRTLSLANELRKFNVNEIIFFTKSDEDVIKKIEENGFKVIKCSDNNDILKNIKNIKPDVVIIDDLGIEEDFAKNIRELCKKLIFFDNPNPSSNKYADIVVNAIVGSELKNRKYFDEENKTLYFYGPKYLILRNEFYKVKKEMLSRSKNKETKNILIAFGGSDPSNLTCKVLEELLSKDRDFNINVVLGPKFQYEDELNNLLKRYSKSDKIKIYKNIDNMAELMKDNDLIITSPGMTMFEALFLGIPVVVLYQNELQRECYDDYLKKISKTHLNPLKEGYFIDAEHTDLHIGKGKFEIIEAITNIYNCKKIGEDSKIIIRQITDNDLELLMAWRSNPLIYKFFYIQKEPLKWEEHYSWWMSRENRVDWIILLRENNTIRKVGSVNVSQLNTDNPEIGILIGEFFLWGKHIGRHSVSLVLKWLKNIGYKKAHARILENNIRSIKLFESLGFKKTKKGRENEWIYEVNL,not soluble
16,MGSDKIHHHHHHMKEVAIYIYMLAVKITGCLARIFPVKQKVVLLVSFPENSTAIIKQMNEMKVTPKTVVFYDPRVDVTGFNFDFIQLKPKKIKHFISLMFHLNTAKVVITDNYFVELAGLKERKNVTCIQIWHANGALKKFGWEDKAAQKRSARDKKRFQEVYRCFSKVLVGSDEMAAIFQRSFLLEDSHMLKLGIPRTDNFFNQQQLKENAERTNTKLHLSNKKKLLYAPTFRDEELHSTTLHLDIAKMKQALGNEYQLILKLHPSISNDLDEVVDDFVVYADKETPIETILPAVDILITDYSSIPFEFALLEKPMIFFTYDLEEYDKARGLSDGFLATIPGPFVHTTEELIQLIEQEAFDLEMVRAFAAKWNKYSDGHSSERFVSFLKEQLEK,not soluble
17,MSKDEGKRKKESVVDLTRFLDKEIRVKFQGGREASGVLRGFDQLLNMVLDDCREYLRDPQNPSVVGDETRQLGLIVARGTAITVVSPADGLEQIANPFATQEEE,not soluble
18,MFLKVRAEKRLGNFRLNVDFEMGRDYCVLLGPTGAGKSVFLELIAGIVKPDRGEVRLNGADITPLPPERRGIGFVPQDYALFPHLSVYRNIAYGLRNVERVERDRRVREMAEKLGIAHLLDRKPARLSGGERQRVALARALVIQPRLLLLDEPLSAVDLKTKGVLMEELRFVQREFDVPILHVTHDLIEAAMLADEVAVMLNGRIVEKGKLKELFSAKNGEVAEFLSARNLLLKVSKILD,soluble
19,YDKEFGGFGGAPKFPMAMNLSFLLRYGQRYGDGEAVAMATDTLTAMAQGGIWDHLGGGFHRYTVDGRWLVPHFEKMLYDQALCTLALVEAAQVTGNSVFRELAKETCGFVLRELSAPAGGFYSALDADSEGREGACYLWTPAQVRDILGVADGELFCRLYAVTAWGNFEGANVLHLPLAPDAFARDEGVDPLRLQEKIAQWHILLLEARERRPRPFRDEKIITGWNGLMIAALARTFLICGDELLLEGAERAVRRVCIDLRTPAGRLVRSCHRGEASGPGFLEDYAFFIRGLLELHEATLDPRHLALARSLAHDMLRLFGDSGGGLFDTGSDAETILVRGKG,not soluble
20,GHMASGSLGELQESQSRLEAATKECQALEGRARAASEQARQLESEREALQQQHSVQVDQLRMQGQSVEAALRMERQAASEEKRKLAQLQVAYHQLFQEYDNHIKSSVVGSERKRGMQLEDLKQQLQQAEE,soluble
21,MKKCRICGKKAIIYMPHHRLALCREHFVEWFEKYTERTIKEFKMFTKKDKVLVAISGGKDSLALWHVLRKLGYEADGLYINLGIGEYSEKSKEKVLKFAEKINGKAIIVDLKEELAGIPELVKITSREACSVCGLVKRYNFNKVAKEHGYNVIATGHNLDDEASALLANVLNWNEKYLGRKYPVLEEEAGFVRKVKPFCKFTEKETALYALLNGIDFIEEECPFSEDATSVFYKKILNEIEERSPGTKLRFYLDYLRKIYPKFRKEEEKKELQPCKVCGEPTVGEICPVCRLREKVEASSG,soluble
22,RQLTVLERVAPTITGNLENQTTSIGESIEVSCTASGNPPPQIMWFKDNETLVEDSGIVLKDGNRNLTIRRVRKEDEGLYTCQACSVLGCAKVEAFFIIEGAQEKTNLE,soluble
23,MAAFSQLYDLHINILFNYGLKLTIDKELLKDCIHDIFVKLYTKKDELGTIDNLKSYLFISLKNKLCDELRKRMYMSDTAIEDVNAVAPTDVEDDYMEEEQRKNEFSLVKRLLDQLSPRQREALTLYYIEEKKYEDICEIMNMNYQSVRNLMHRGLTKLRSLAS,not soluble

# — the DeepSol protein solubility set
